Tests used:
MDA-MB-231 cells = experiment: Matrigel invasion toward EGF; assay type: cell-based, human; conditions: 100 ng/ml, 22 hours
Procedure: Transwell migration was monitored using 96-well BD Fluoroblock plates with 8 μm filters (Corning, Inc., Corning, N.Y.). Cells were harvested and suspended at density of 2.0×10^6 cells/ml in migration media (L-15+1% FBS), and a volume of 75 μl cell suspension was placed on top of the filter inserts. Where indicated, IL-10R neutralizing antibody was added at a concentration of 30 μg/ml. […] After 5 hrs at 37° C., cells that traversed the filter and entered the lower chamber were quantified by the addition of Cell Titer Glo (Promega, Madison, Wis.) using a Turner Veritas luminometer. For invasion, 96-well matrigel-coated BD Fluoroblock transwell invasion plates (Corning) were used. Invasion plates were re-hydrated with warm media at 37° C. for 3 hrs and then 75 μl cell suspension loaded onto the hydrated filters as described above. Where indicated, 10 μM Stat3 inhibitor was included with cells in the top chamber; cmvIL-10, hIL-10 or conditioned medium was present in both chambers. […] At harvest, cells that had degraded the matrigel and entered the lower chamber were quantified by the addition of Cell Titer Glo as above.

MTSS1 = MTSS1 immunoblotting; assay type: cell-based, human; conditions: 10 ng/mL, beyond 24 hours
Procedure: Confluent T-75 flasks of MDA-MB-231 cells were treated with 10 ng/mL cmvIL-10 (R&D systems) for the indicated times, then scraped and harvested into cell lysis buffer (150 mM NaCl, 20 mM HEPES, 0.5% Triton-X-100, 1.0 mM NaOV4, 1.0 mM EDTA, 0.1% NaN3) containing 1× protease inhibitors (Calbiochem). Cell lysates were clarified via centrifugation, heated at 70° C. for 10 min in reducing buffer, and the proteins separated on a 4-12% Tris-Base SDS-PAGE gel (Life Technologies, Grand Island, N.Y.). After transfer to nitrocellulose, the membrane was incubated in blocking solution (5% milk+TBS) for 1 hr at room and then probed with primary antibody: 1:1000 dilution for MMP-3 or MTSS-1 antibodies (Santa Cruz), or MAPK antiserum (Cell Signaling Tech, Danvers, Mass.), in blocking solution overnight, oscillating on a platform rocker at 4.0° C. After three washes, the membranes were incubated with a 1:2000 dilution of appropriate AP-conjugated secondary antibody on a platform rocker at room temperature for 1 hr. Protein bands were detected using western blue stabilized AP substrate (Promega, Madison, Wis.). For zymography, cell lysates were denatured in SDS buffer under non-reducing conditions without heat, and run on a 4-16% Zymogram gel using Tris-Glycine SDS running buffer according to manufacturer's instructions. […]

B1: cmvIL-10 (protein)
chain: ATTTTIKNTKPQCRPEDYATRLQDLRVTFHRVKPTLQREDDYSVWLDGTVVKGCWGCSVMDWLLRRYLEIVFPAGDHVYPGLKTELHSMRSTLESIYKDMRQCPLLGCGDKSVISRLSQEAERKSDNGTRKGLSELDTLFSRLEEYLHSRK
- invasion through matrigel compared with hIL-10 (MDA-MB-231 cells): significantly greater extent than hIL-10
- invasion through matrigel toward EGF (MDA-MB-231 cells): strong enhancer of cell invasion
- MTSS1 protein (82 kD band) (MTSS1): significant decrease in MTSS1 expression

— patent publication US20180128830A1, “DETECTION OF HUMAN CYTOMEGALOVIRUS IN BREAST CANCER” (priority 2015, published 2018)
